# Test results: the RNAGym collection of RNA variant scans (doi:10.1073/pnas.2313332121)
# This sample holds only a part of the variants without activity.
# B1: TPR 5TU (parent)
# chain: GGAUCUUCUCGAUCUAACAAAAAAGACAAAUCUGCCACAAAGCUUGAGAGCAUCUUCGGAUGCAGAGGCGGCAGCCUUCGGUGGCGCGAUAGCGCCAACGUUCUCAACUAUGACACGCAAAACGCGUGCUCCGUUGAAUGGAGUUUAUCAUG
# Variants of: B1
# Test: polymerase ribozyme fitness, log enrichment relative to wild type (log ratio); higher = more active; in vitro selection for triplet polymerase activity
# In short: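 One round of in vitro selection, in triplicate, was applied to PCR-built, transcribed mutant libraries of each subunit of a heterodimeric triplet polymerase ribozyme. The steps were annealing with a biotinylated primer, partner subunit and triplets, incubation frozen at −7 °C, gel excision of extended constructs, streptavidin-bead capture and RT-PCR. Fitness is the logarithm, base 2, of genotype enrichment over wild-type enrichment from inverse-variance-weighted replicate averages of Illumina-sequenced inputs and outputs, keeping genotypes with ≥10 input reads and ≥1 read per output.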
row,Variant,polymerase ribozyme fitness (log ratio)
1,GGAUCUUCUCGAUCUAACAAAAAAGACAAAUCUGCCACAAAGCUUGAGAGCAUCUUCGGAUGCAGAGGCGGCAGCCUUCGGUGGCGCGAUAGCGCCAUCGUUCUCAACUAUGACACGCAAAACGCGUGCUCCGUUUAAUGGAGUUUAUCAUG [A98U G136U],-2.64
2,GGAUCUUCUCGAUCUAACAAAAAAGACAAAUCUGCCACAAAGCUUGAGAGCAUCUUCGGAUGCAGAGGCGGCAGCCUUCGGUGGCGCGAUAGCGCCAAGGUUCUCAACUAUGACAUGCAAAACGCGUGCUCCGUUGAAUGGAGUUUAUCAUG [C99G C116U],-0.76
3,GGAUCUUCUCGAUCUAACAAAAAAGACAAAUCUGCCACAAAGCUUGAGAGCAUCUUCGGAUGCAGAGGCGGCAGCCUUCGGUGGCGCGAUAGCGCCAAAGUUCUCAACUAUGACACGCAAAACGCGUGCUCCGUAGAAUGGAGUUUAUCAUG [C99A U135A],-2.77
4,GGAUCUUCUCGAUCUAACAAAAAAGACAAAUCUGCCACAAAGCUUGAGAGCAUCUUCGGAUGCAGAGGCGGCAGCCUUCGGUGGCGCGAUAGCGCCCACGUUGUCAACUAUGAGACGCAAAACGCGUGCUCCGUUGAAUGGAGUUUAUCAUG [A97C C103G C114G],-3.86
5,GGAUCUUCUCGAUCUAACAAAAAAGACAAAUCUGCCACAAAGCUUGAGAGCAUCUUCGGAUGCAGAGGCGGCAGCCUUCGGUGGCGCGAUAGCGCCGUCGUUCUCAACUAUGACACGCAAAACGCGUGCUCCGUUGAAUGGAGUUUAUCAUG [A97G A98U],-0.253
6,GGAUCUUCUCGAUCUAACAAAAAAGACAAAUCUGCCACAAAGCUUGAGAGCAUCUUCGGAUGCAGAGGCGGCAGCCUUCGGUGGCGCGAUAGCGCCUACGUUCUCAACUAUGACACGCAAAACGCGUGCUCCGUUGAAUGGAGUUUAUCAUA [A97U G152A],-2.62
7,GGAUCUUCUCGAUCUAACAAAAAAGACAAAUCUGCCACAAAGCUUGAGAGCAUCUUCGGAUGCAGAGGCGGCAGCCUUCGGUGGCGCGAUAGCGCCUACGUUCGCAACUAUGACACGCAAAACGCGUGCUCCGUUGAAUGGAGUUUAUCAUG [A97U U104G],-0.956
8,GGAUCUUCUCGAUCUAACAAAAAAGACAAAUCUGCCACAAAGCUUGAGAGCAUCUUCGGAUGCAGAGGCGGCAGCCUUCGGUGGCGCGAUAGCGCCAGCGCUCUCAACUAUGACACGCAAAACGCGUGCUCCGUUGAAUGGAUUUUAUUAUG [A98G U101C G143U C149U],≤ -4.2
9,GGAUCUUCUCGAUCUAACAAAAAAGACAAAUCUGCCACAAAGCUUGAGAGCAUCUUCGGAUGCAGAGGCGGCAGCCUUCGGUGGCGCGAUAGCGCCAUCGUUCUAAACUAUGACACGCGACACGCGUGCUCCGUUGAAUGGAGUUUAUCAUG [A98U C105A A119G A121C],-0.491
10,GGAUCUUCUCGAUCUAACAAAAAAGACAAAUCUGCCACAAAGCUUGAGAGCAUCUUCGGAUGCAGAGGCGGCAGCCUUCGGUGGCGCGAUAGCGCCUACGUUCUCAACUAUGACACGCAAAACGCGUGCUCCGUUGAAUGGAGUUUACCAUG [A97U U148C],-1.51
11,GGAUCUUCUCGAUCUAACAAAAAAGACAAAUCUGCCACAAAGCUUGAGAGCAUCUUCGGAUGCAGAGGCGGCAGCCUUCGGUGGCGCGAUAGCGCCAAGGUUCUCAAAUGUGACACGCAAAACGCGUGCUCCGUUGAAUGGAGUUUAUCAUG [C99G C108A A110G],≤ -4.2
12,GGAUCUUCUCGAUCUAACAAAAAAGACAAAUCUGCCACAAAGCUUGAGAGCAUCUUCGGAUGCAGAGGCGGCAGCCUUCGGUGGCGCGAUAGCGCCGACGUUCUCAACUAUGACACGCAAAACGCGUGCUCCAUUGAAUGGAGUUUAUCAUG [A97G G133A],-3.61
13,GGAUCUUCUCGAUCUAACAAAAAAGACAAAUCUGCCACAAAGCUUGAGAGCAUCUUCGGAUGCAGAGGCGGCAGCCUUCGGUGGCGCGAUAGCGCCAUCGUUCUCAACUAUGACACGCAAAACGCGGGCUCCGUUGAAUGGAGUUUAUCAUG [A98U U127G],-3.18
14,GGAUCUUCUCGAUCUAACAAAAAAGACAAAUCUGCCACAAAGCUUGAGAGCAUCUUCGGAUGCAGAGGCGGCAGCCUUCGGUGGCGCGAUAGCGCCAAGGUUCUCAACUAUGCCACGCAAAACGCGUGCUCCGUCGAAUGGAGUUUAUCAUG [C99G A113C U135C],≤ -4.2
15,GGAUCUUCUCGAUCUAACAAAAAAGACAAAUCUGCCACAAAGCUUGAGAGCAUCUUCGGAUGCAGAGGCGGCAGCCUUCGGUGGCGCGAUAGCGCCAUCGUUCUCAACUAUGACACGCAAAACGCGUGCUCCGUUGAAUGGAGUUUCUCAUG [A98U A147C],0.168
16,GGAUCUUCUCGAUCUAACAAAAAAGACAAAUCUGCCACAAAGCUUGAGAGCAUCUUCGGAUGCAGAGGCGGCAGCCUUCGGUGGCGCGAUAGCGCCCACGUUCUCAACUAUGACACGCGAAACGCGUGCUCCGUUGAAUGGAGUUUAUCAUG [A97C A119G],0.72
17,GGAUCUUCUCGAUCUAACAAAAAAGACAAAUCUGCCACAAAGCUUGAGAGCAUCUUCGGAUGCAGAGGCGGCAGCCUUCGGUGGCGCGAUAGCGCCAGCGUUCUCAUCUAUGACACGCAAAACGCGUGCUCCGUUGAAUGGAGUUUAUCAUG [A98G A107U],-3.24
18,GGAUCUUCUCGAUCUAACAAAAAAGACAAAUCUGCCACAAAGCUUGAGAGCAUCUUCGGAUGCAGAGGCGGCAGCCUUCGGUGGCGCGAUAGCGCCUACGUUCUCAACUAUGACACGCAAAACGCGUGCUCCGGUGAAUGGAGUUUAUCAUG [A97U U134G],-2.5
19,GGAUCUUCUCGAUCUAACAAAAAAGACAAAUCUGCCACAAAGCUUGAGAGCAUCUUCGGAUGCAGAGGCGGCAGCCUUCGGUGGCGCGAUAGCGCCAGCGUUCUCAACUAUGACACGCAAAACGCGUGCUCCCUUGAAUGGAGUUUAUCAUG [A98G G133C],-1.69
